Results taken from patent publication US20200087367A1 (ACCELERON PHARMA, published 2020).

Tests used:
Assay in all cases: SPR, captured hENG-hFc, soluble BMP10; '-' = Binding undetectable
hENG(129-346)-hFc = molecular target: T1, hENG(129-346)-hFc (human, UniProt P17813 129-346)
T1 construct: HEK 293, purified; not shown: linker and human IgG1 Fc domain
T1 sequence: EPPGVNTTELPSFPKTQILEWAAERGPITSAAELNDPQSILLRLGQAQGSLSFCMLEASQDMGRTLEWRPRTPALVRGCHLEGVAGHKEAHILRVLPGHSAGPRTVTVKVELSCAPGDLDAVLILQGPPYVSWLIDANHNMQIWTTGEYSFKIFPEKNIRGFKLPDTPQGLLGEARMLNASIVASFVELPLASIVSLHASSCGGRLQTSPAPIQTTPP
Method: (§1) SPR methodology was used to screen these hENG-hFc protein variants for high-affinity binding to human BMP9 and BMP10. In these experiments, captured hENG-hFc proteins were exposed to soluble BMP9 or BMP10 at 100 nM each.

hENG(26-332)-hFc = molecular target: T2, hENG(26-332)-hFc (human, UniProt P17813 26-332)
T2 construct: HEK 293, purified; not shown: linker and human IgG1 Fc domain
T2 sequence: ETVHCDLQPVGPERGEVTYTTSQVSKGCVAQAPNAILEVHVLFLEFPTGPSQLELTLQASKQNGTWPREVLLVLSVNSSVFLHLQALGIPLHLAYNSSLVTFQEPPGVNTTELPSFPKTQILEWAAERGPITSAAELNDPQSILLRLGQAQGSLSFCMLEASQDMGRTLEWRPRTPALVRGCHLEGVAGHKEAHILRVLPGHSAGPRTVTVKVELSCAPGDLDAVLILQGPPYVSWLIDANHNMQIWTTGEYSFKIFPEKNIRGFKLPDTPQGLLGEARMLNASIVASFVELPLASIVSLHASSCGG
Method: as §1

hENG(26-257)-hFc = molecular target: T3, hENG(26-257)-hFc (human, UniProt P17813 26-257)
T3 construct: HEK 293, purified; not shown: linker and human IgG1 Fc domain
T3 sequence: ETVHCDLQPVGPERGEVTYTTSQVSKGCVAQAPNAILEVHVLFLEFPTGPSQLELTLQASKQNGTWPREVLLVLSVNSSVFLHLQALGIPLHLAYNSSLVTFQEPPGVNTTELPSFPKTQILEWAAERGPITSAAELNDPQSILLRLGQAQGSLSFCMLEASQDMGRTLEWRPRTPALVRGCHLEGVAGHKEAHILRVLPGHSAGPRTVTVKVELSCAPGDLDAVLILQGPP
Method: as §1

hENG(61-346)-hFc = molecular target: T4, hENG(61-346)-hFc (human, UniProt P17813 61-346)
T4 construct: HEK 293, purified; not shown: linker and human IgG1 Fc domain
T4 sequence: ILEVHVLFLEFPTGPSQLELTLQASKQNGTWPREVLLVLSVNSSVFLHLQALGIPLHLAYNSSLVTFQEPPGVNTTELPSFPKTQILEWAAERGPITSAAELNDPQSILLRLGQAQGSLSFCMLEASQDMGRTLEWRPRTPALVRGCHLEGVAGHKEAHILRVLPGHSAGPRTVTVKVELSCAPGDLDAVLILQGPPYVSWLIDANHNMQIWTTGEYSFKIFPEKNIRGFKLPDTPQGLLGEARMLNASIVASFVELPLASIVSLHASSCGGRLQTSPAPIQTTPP
Method: as §1

hENG(26-329)-hFc = molecular target: T5, hENG(26-329)-hFc (human, UniProt P17813 26-329)
T5 construct: HEK 293, purified; not shown: linker and human IgG1 Fc domain
T5 sequence: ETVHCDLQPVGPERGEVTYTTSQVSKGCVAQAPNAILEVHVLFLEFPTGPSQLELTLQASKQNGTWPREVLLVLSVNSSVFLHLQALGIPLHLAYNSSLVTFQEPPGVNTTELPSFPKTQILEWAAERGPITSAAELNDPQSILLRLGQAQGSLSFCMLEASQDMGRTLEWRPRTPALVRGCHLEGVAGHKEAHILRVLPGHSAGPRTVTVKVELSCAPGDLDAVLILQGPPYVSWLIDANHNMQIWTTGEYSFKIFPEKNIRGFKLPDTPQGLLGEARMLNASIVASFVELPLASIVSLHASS
Method: as §1

hENG(438-586)-hFc = molecular target: T6, hENG(438-586)-hFc (human, UniProt P17813 438-586)
T6 construct: HEK 293, purified; not shown: linker and human IgG1 Fc domain
T6 sequence: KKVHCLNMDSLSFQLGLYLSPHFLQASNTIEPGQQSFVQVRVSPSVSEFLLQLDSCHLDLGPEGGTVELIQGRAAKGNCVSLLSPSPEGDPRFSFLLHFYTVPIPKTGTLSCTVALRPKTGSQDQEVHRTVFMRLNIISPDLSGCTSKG
Method: as §1

hENG(360-586)-hFc = molecular target: T7, hENG(360-586)-hFc (human, UniProt P17813 360-586)
T7 construct: HEK 293, purified; not shown: linker and human IgG1 Fc domain
T7 sequence: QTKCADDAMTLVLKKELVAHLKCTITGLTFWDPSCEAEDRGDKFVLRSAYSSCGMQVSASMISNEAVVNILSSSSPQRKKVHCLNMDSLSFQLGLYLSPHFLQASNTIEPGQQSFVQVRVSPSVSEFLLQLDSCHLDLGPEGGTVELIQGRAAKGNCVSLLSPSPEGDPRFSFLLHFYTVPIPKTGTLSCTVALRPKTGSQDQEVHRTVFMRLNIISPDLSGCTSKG
Method: as §1

hENG(360-581)-hFc = molecular target: T8, hENG(360-581)-hFc (human, UniProt P17813 360-581)
T8 construct: HEK 293, purified; not shown: linker and human IgG1 Fc domain
T8 sequence: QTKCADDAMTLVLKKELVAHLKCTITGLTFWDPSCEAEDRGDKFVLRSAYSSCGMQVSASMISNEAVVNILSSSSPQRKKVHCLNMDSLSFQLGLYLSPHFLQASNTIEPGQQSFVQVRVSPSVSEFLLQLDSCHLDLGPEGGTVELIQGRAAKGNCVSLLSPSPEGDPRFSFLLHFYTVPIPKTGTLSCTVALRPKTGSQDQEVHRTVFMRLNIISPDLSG
Method: as §1

Measured: binding result

B1: BMP10 (ligand)
chain: NAKGNYCKRTPLYIDFKEIGWDSWIIAPPGYEAYECRGVCNYPLAEHLTPTKHAIIQALVHLKNSQKASKACCVPTKLEPISILYLDKGVVTYKFKYEGMAVSECGCR
notes: also called hBMP-10; hBMP10
no binding (tested: 100 nM): hENG(129-346)-hFc | hENG(26-332)-hFc | hENG(26-257)-hFc | hENG(61-346)-hFc | hENG(26-329)-hFc | hENG(438-586)-hFc | hENG(360-586)-hFc | hENG(360-581)-hFc
